Tests used:
[1] = tested on: gelatinolytic activity (MMP) in MCF10 DCIS.com xenograft sections; details: DQ gelatin, incubated with EDTA (2 mM in method, 20 mM in FIG. 5 legend)
Protocol: In situ zymography was performed on the fresh frozen DCIS xenografts as described by Mook et. al. (29). In brief, 8 micron thick cryosections were air dried, rehydrated with PBS for 5 min and overlaid with a solution of 50 μg/ml fluorescein-labeled gelatin (DQ gelatin; Molecular Probes, Eugene, Oreg.), 1% w/v low melting temperature agarose (BioWhittaker Molecular Applications, Rockland, Me.) and 5 μg/ml DAPI (Molecular Probes) in PBS in the presence or absence of 2 mM EDTA and incubated on ice for 15 min followed by incubation in a humidified chamber at 37° C. for 2 hr. Protease catalyzed hydrolysis of the heavily labeled and totally quenched DQ Gelatin relieved the intra-molecular self quenching, yielding brightly fluorescent peptide, which was visualized by using imaging microscope.

MMP-2 = biological target: T1, MMP-2 (Homo sapiens, UniProt P08253); assay: Cleavage of recombinant galectin-3 proteins by activated MMP-2 (Western blot); type: biochemical; details: purified active MMP-2, 15 min, 37° C.
T1 sequence (P08253 110-660): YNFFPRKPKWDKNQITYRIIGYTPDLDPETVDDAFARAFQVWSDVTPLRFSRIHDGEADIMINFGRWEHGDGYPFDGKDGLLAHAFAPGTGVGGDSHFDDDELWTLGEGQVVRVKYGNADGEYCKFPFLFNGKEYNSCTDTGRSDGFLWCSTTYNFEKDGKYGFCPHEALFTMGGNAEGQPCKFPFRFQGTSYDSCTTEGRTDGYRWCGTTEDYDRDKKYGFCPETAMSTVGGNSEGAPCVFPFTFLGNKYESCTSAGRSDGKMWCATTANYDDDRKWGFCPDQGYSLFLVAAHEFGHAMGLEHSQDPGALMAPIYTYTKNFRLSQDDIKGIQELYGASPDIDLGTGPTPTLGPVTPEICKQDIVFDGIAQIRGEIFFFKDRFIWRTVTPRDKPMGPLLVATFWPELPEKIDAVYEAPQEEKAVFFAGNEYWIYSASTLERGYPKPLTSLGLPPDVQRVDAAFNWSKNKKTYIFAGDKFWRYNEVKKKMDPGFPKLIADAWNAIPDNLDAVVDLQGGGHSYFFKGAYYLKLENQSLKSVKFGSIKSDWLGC

MMP-9 = MMP-9 (Homo sapiens, UniProt P14780); assay: Cleavage of recombinant galectin-3 proteins by activated MMP-9 (Western blot); type: biochemical; details: purified active MMP-9, 60 min, 37° C.
MDA-MB-435 tumors = details: mice bearing MDA-MB-435 tumors, injection; cited from earlier work

MMP-9, sequence (P14780 107-707 limits assumed): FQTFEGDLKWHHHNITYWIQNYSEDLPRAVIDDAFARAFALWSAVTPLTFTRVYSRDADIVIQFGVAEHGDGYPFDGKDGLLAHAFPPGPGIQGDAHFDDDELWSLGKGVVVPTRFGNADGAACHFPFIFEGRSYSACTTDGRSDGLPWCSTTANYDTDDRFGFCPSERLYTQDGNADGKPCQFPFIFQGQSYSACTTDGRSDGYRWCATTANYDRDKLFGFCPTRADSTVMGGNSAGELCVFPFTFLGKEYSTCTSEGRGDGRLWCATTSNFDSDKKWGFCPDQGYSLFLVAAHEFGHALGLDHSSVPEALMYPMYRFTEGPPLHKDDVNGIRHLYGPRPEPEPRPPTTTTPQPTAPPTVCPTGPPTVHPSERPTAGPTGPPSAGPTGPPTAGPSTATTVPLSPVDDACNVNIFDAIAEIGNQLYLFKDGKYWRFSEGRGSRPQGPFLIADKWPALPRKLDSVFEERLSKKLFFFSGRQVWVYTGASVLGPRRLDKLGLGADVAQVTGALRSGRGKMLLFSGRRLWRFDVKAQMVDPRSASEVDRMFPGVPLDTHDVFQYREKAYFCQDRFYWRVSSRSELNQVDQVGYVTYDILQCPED

O=C(O)CN(CCN(CC(=O)O)CC(=O)O)CC(=O)O [EDTA]
gelatinolytic activity in the stroma [1]: abrogated

A33G: recombinant galectin-3 mutant with A33G substitution
polypeptide produced upon incubation with MMP-2 (MMP-2): ~22 kDa
polypeptide produced upon incubation with MMP-9 (MMP-9): ~22 kDa

Wild type galectin-3: recombinant human wild type galectin-3, isolated from a GST fusion protein
polypeptide produced upon incubation with MMP-2 (MMP-2): ~22 kDa
polypeptide produced upon incubation with MMP-9 (MMP-9): ~22 kDa

cleaved galectin-3 peptide containing 108-250 amino acids: cleaved galectin-3 peptide containing 108-250 amino acids, from the literature (ref. 37)
tumor growth and metastasis (MDA-MB-435 tumors): loss of tumor growth and metastasis
